Experimental findings from patent publication US20140072613A1 (published 2014) are described below.

Among the targets are VRK2(h) (human, UniProt Q86Y07 1-508, limits assumed); PAK3(h) (human, UniProt O75914 1-559, limits assumed); ErbB4(h) (human, UniProt Q15303 706-991, limits assumed); Rsk3(h) (human, UniProt Q15349 1-733).
What all share (assay): cell-based or functional assay
For another assay, the target named is T1, Mer(h) (human, UniProt Q12866 578-872, limits assumed).
T1 sequence (looked up): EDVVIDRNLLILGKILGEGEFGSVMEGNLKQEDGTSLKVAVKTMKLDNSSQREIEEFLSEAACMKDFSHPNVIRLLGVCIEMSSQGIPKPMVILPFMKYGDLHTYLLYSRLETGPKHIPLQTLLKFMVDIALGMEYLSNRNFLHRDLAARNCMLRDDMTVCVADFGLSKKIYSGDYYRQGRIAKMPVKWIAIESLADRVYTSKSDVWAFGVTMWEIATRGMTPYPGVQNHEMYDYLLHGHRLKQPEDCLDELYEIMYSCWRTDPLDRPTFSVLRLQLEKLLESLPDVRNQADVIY

The next assay has as its target T2, DDR2(h) (human, UniProt Q16832 422-855, limits assumed).
T2 sequence (looked up): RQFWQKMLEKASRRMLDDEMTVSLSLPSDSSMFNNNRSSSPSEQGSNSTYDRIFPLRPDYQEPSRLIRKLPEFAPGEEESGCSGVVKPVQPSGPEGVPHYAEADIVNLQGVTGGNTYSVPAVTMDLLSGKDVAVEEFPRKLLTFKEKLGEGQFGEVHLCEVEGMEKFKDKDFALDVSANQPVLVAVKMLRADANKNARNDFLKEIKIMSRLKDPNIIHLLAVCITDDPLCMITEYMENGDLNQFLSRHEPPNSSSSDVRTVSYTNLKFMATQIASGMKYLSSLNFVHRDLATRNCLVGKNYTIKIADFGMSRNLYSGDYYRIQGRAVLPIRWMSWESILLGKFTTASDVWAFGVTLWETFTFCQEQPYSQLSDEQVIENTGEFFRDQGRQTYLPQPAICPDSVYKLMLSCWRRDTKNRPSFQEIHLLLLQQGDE

The target in another assay is T3, SGK2(h) (human, UniProt Q9HBY8 1-367, limits assumed).
T3 sequence (looked up): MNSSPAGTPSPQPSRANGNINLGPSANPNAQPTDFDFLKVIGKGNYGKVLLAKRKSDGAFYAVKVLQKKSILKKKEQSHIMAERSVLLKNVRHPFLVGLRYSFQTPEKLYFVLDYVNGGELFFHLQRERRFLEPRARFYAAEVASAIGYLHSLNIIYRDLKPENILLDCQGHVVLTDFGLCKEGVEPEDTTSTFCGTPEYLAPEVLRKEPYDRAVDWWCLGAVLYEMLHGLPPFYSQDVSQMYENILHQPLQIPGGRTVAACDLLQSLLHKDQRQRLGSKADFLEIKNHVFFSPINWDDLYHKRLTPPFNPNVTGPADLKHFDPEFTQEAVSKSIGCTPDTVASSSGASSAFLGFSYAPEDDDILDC

The target in a further assay is T4, PKCµ(h) (human, UniProt Q15139 1-912).
T4 sequence (looked up): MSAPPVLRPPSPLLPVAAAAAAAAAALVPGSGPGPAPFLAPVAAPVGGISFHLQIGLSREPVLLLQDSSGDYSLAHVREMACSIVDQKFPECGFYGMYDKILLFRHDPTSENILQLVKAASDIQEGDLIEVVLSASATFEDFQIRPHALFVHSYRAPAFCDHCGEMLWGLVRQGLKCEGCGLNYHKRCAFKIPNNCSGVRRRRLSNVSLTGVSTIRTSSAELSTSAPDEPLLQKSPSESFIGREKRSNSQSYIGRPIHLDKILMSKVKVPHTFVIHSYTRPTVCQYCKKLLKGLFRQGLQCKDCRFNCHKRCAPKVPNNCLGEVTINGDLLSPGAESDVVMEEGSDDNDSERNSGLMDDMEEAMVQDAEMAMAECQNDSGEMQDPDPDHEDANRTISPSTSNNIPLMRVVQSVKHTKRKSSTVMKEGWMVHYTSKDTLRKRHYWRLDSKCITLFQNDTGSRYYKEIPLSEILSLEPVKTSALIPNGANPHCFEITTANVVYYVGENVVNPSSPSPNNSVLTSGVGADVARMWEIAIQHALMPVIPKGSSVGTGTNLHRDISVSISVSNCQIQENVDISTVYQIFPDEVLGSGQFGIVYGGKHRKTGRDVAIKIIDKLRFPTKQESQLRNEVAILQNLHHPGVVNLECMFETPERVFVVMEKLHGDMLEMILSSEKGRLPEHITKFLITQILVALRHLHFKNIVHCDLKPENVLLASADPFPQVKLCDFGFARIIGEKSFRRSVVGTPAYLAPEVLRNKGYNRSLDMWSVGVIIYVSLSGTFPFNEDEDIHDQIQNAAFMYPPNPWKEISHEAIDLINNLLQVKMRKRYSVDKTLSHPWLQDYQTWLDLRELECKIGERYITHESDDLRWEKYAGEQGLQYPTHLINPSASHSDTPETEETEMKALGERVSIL

Another assay concerns the target T5, TSSK2(h) (human, UniProt Q96PF2 1-358).
T5 sequence (looked up): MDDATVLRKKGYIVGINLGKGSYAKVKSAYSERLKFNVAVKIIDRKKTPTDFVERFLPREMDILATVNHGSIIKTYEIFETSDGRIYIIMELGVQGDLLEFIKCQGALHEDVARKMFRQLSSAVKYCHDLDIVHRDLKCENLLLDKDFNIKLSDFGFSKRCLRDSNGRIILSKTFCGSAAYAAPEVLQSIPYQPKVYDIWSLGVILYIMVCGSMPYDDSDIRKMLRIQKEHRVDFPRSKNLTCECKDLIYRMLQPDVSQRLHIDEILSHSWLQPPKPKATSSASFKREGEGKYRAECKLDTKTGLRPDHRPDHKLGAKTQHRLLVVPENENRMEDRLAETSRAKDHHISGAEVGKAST

VRK2(h), sequence (Q86Y07 whole entry): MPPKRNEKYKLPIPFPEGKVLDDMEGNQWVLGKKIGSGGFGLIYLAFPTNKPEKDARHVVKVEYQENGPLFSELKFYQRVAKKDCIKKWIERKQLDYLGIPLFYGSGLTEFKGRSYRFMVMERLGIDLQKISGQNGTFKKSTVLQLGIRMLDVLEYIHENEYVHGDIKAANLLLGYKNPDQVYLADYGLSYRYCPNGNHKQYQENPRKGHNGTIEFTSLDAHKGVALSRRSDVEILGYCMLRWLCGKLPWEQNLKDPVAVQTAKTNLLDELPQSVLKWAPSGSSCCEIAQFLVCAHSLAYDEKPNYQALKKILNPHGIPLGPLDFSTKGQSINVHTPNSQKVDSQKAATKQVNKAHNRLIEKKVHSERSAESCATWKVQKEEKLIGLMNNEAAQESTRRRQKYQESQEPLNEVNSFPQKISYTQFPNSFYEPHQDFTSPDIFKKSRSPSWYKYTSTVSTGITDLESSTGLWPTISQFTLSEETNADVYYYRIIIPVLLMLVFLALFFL
ErbB4(h), sequence (Q15303 706-991 limits assumed): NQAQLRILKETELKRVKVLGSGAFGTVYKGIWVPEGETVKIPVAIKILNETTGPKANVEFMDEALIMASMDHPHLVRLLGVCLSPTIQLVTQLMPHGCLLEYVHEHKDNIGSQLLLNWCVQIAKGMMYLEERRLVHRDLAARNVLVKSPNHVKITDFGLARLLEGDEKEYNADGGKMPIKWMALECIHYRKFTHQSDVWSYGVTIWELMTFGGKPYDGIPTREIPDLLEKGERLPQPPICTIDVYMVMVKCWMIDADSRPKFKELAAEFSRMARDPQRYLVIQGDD
Rsk3(h), sequence (Q15349 whole entry): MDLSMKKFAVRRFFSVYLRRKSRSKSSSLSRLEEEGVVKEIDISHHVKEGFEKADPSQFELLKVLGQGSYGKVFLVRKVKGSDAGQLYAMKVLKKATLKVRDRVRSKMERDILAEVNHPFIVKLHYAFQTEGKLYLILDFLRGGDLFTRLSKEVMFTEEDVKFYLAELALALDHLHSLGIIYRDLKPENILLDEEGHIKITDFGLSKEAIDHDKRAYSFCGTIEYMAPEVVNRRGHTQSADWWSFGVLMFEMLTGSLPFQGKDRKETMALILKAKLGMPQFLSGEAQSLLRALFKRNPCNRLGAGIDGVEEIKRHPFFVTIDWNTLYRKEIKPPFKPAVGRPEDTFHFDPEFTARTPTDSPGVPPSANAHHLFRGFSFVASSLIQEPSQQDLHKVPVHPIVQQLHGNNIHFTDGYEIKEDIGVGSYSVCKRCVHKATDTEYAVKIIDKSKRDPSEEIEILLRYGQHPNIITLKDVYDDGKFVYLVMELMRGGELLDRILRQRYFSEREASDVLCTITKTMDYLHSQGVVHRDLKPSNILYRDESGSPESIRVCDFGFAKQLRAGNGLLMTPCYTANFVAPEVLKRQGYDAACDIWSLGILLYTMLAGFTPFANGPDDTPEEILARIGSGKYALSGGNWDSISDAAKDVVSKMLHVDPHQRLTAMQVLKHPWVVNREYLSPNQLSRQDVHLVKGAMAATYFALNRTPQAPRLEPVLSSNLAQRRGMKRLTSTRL
PAK3(h), sequence (O75914 whole entry): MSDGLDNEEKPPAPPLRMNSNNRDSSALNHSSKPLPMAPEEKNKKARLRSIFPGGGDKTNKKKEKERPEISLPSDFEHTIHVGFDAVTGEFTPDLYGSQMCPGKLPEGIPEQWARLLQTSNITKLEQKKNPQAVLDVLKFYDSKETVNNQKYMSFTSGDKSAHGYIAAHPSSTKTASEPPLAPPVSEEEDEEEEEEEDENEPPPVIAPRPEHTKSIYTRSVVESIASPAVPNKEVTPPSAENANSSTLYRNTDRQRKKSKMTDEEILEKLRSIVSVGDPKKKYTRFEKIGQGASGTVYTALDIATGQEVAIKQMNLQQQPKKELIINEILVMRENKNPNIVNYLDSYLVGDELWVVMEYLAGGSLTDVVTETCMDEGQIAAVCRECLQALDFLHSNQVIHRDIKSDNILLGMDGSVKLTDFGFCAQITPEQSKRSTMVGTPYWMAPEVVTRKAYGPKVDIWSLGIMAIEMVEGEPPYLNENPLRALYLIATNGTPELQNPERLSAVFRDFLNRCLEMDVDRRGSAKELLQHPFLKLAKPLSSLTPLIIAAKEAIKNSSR

FAKLAARLYRKALARQLGVAA [MMI-0300]: the “% activity, 100 µM” value in the assay with Mer(h) worked out at 52%; in the assay with DDR2(h), 94%; in the assay with VRK2(h) it was 161%; with PAK3(h) it was 140%; with ErbB4(h), 40%; in the assay with Rsk3(h) it was 76%. Besides, the “% activity, 100 µM” value in the assay with SGK2(h) worked out at 56%; with PKCµ(h), 22%; in the assay with TSSK2(h) it was 98%.
In the case of KAFAKLAARLYRKALARQLGVAA [MMI-0400], the “% activity, 100 µM” value was found to be 50% with Mer(h); 95% with DDR2(h); 185% with VRK2(h); 121% in the assay with PAK3(h); 0% in the assay with ErbB4(h); 71% with Rsk3(h). The “% activity, 100 µM” value with SGK2(h) stood at 98%; in the assay with PKCµ(h), 14%; in the assay with TSSK2(h), 94%.
